The text below walks through data of article doi:10.1101/553511 (bioRxiv, 2019).

This data set deals with the molecule itself. The data set can be described thus: SEC-MALS. A general note: Size exclusion chromatography separates by hydrodynamic size, large species first.

B1: ΔKAP1 (23-812) (domain or fragment)
chain: GEGSAGGEKRSTAPSAAASASASAAASSPAGGGAEALELLEHCGVCRERLRPEREPRLLPCLHSACSACLGPAAPAAANSSGDGGAAGDGTVVDCPVCKQQCFSKDIVENYFMRDSGSKAATDAQDANQCCTSCEDNAPATSYCVECSEPLCETCVEAHQRVKYTKDHTVRSTGPAKSRDGERTVYCNVHKHEPLVLFCESCDTLTCRDCQLNAHKDHQYQFLEDAVRNQRKLLASLVKRLGDKHATLQKSTKEVRSSIRQVSDVQKRVQVDVKMAILQIMKELNKRGRVLVNDAQKVTEGQQERLERQHWTMTKIQKHQEHILRFASWALESDNNTALLLSKKLIYFQLHRALKMIVDPVEPHGEMKFQWDLNAWTKSAEAFGKIVAERPGTNSTGPAPMAPPRAPGPLSKQGSGSSQPMEVQEGYGFGSGDDPYSSAEPHVSGVKRSRSGEGEVSGLMRKVPRVSLERLDLDLTADSQPPVFKVFPGSTTEDYNLIVIERGAAAAATGQPGTAPAGTPGAPPLAGMAIVKEEETEAAIGAPPTATEGPETKPVLMALAEGPGAEGPRLASPSGSTSSGLEVVAPEGTSAPGGGPGTLDDSATICRVCQKPGDLVMCNQCEFCFHLDCHLPALQDVPGEEWSCSLCHVLPDLKEEDGSLSLDGADSTGVVAKLSPANQRKCERVLLALFCHEPCRPLHQLATDSTFSLDQPGGTLDLTLIRARLQEKLSPPYSSPQEFAQDVGRMFKQFNKLTEDKADVQSIIGLQRFFETRMNEAFGDTKFSAVLVEP
Turning to B1, the “stoichiometry N” value was 2.

B2: KAP1 RBCC domain (RBCC, 23-418) (domain or fragment)
chain: GEGSAGGEKRSTAPSAAASASASAAASSPAGGGAEALELLEHCGVCRERLRPEREPRLLPCLHSACSACLGPAAPAAANSSGDGGAAGDGTVVDCPVCKQQCFSKDIVENYFMRDSGSKAATDAQDANQCCTSCEDNAPATSYCVECSEPLCETCVEAHQRVKYTKDHTVRSTGPAKSRDGERTVYCNVHKHEPLVLFCESCDTLTCRDCQLNAHKDHQYQFLEDAVRNQRKLLASLVKRLGDKHATLQKSTKEVRSSIRQVSDVQKRVQVDVKMAILQIMKELNKRGRVLVNDAQKVTEGQQERLERQHWTMTKIQKHQEHILRFASWALESDNNTALLLSKKLIYFQLHRALKMIVDPVEPHGEMKFQWDLNAWTKSAEAFGKIVAERPGTNST
Turning to B2, the “stoichiometry N” value stood at 2.

B3: KAP1 full length protein (KAP1 FL, 1-835) (natural protein)
chain: MAASAAAASAAAASAASGSPGPGEGSAGGEKRSTAPSAAASASASAAASSPAGGGAEALELLEHCGVCRERLRPEREPRLLPCLHSACSACLGPAAPAAANSSGDGGAAGDGTVVDCPVCKQQCFSKDIVENYFMRDSGSKAATDAQDANQCCTSCEDNAPATSYCVECSEPLCETCVEAHQRVKYTKDHTVRSTGPAKSRDGERTVYCNVHKHEPLVLFCESCDTLTCRDCQLNAHKDHQYQFLEDAVRNQRKLLASLVKRLGDKHATLQKSTKEVRSSIRQVSDVQKRVQVDVKMAILQIMKELNKRGRVLVNDAQKVTEGQQERLERQHWTMTKIQKHQEHILRFASWALESDNNTALLLSKKLIYFQLHRALKMIVDPVEPHGEMKFQWDLNAWTKSAEAFGKIVAERPGTNSTGPAPMAPPRAPGPLSKQGSGSSQPMEVQEGYGFGSGDDPYSSAEPHVSGVKRSRSGEGEVSGLMRKVPRVSLERLDLDLTADSQPPVFKVFPGSTTEDYNLIVIERGAAAAATGQPGTAPAGTPGAPPLAGMAIVKEEETEAAIGAPPTATEGPETKPVLMALAEGPGAEGPRLASPSGSTSSGLEVVAPEGTSAPGGGPGTLDDSATICRVCQKPGDLVMCNQCEFCFHLDCHLPALQDVPGEEWSCSLCHVLPDLKEEDGSLSLDGADSTGVVAKLSPANQRKCERVLLALFCHEPCRPLHQLATDSTFSLDQPGGTLDLTLIRARLQEKLSPPYSSPQEFAQDVGRMFKQFNKLTEDKADVQSIIGLQRFFETRMNEAFGDTKFSAVLVEPPPMSLPGAGLSSQELSGGPGDGP
With B3, the “stoichiometry N” value was 2.

In general, stoichiometry N refers to the number of molecules, sites or subunits per partner or assembly.
